According to US20240058465A1 (SUTRO BIOPHARMA, published 2024):

What was measured:
[1] = biological target: T1, human ROR1 Frizzled domain (hROR1-Fz) (human, UniProt Q01973 165-305); experiment: SPR Biacore, IgG on anti-Fc, ROR1-Fz analyte
T1 construct: Acro Biosystems, made in HEK293
Experimental: Anti-Fc polyclonal antibodies were immobilized onto a CMS chip (GE Life Sciences) using amine coupling chemistry (from Amine Coupling Kit, GE Life Sciences). The immobilization steps were carried out at a flow rate of 25 μL/min in 1×HBS-EP+buffer (GE Life Sciences; 10× Stock diluted before use). The sensor surfaces were activated for 7 min with a mixture of NHS (0.05 M) and EDC (0.2 M). The Anti-Fc antibodies were injected over all 4 flow cells at a concentration of 25 ug/ml in 10 mM sodium acetate, pH 4.5, for 7 min. Ethanolamine (1 M, pH 8.5) was injected for 7 min to block any remaining activated groups.
Off-rate and kinetic binding experiments were performed at 25° C. using 1×HBS-EP+buffer. Test and control antibodies were injected over the anti-Fc surface at concentrations of 5-10 μg/mL for 12 seconds at a flow rate of 10 μL/min on flow cells 2, 3 and 4, followed by a buffer wash for 30 seconds at the same flow rate. […] After capturing ligand (antibody) on the anti-Fc surface, the analyte (hROR1, Fz or Kr domains, Acro Biosystems, Delaware) was bound for 180 seconds, followed by a 600 second dissociation phase at a flow rate of 50 μL/min. Between each ligand capture and analyte binding cycle, regeneration was carried out using 2 injections of 10 mM Glycine pH 2.0 for 30 seconds at 30 μL/min, followed by a 30 second buffer wash step.

[2] = biological target: T2, human ROR1 (hROR1) (human, UniProt Q01973 30-937); experiment: flow cytometry, HCT116-hROR1 cells
T2 construct: On HCT116-hROR1 transfectants, Mino cells or Ntera-2 cells, as the assay of each row says; also called receptor tyrosine kinase like orphan receptor 1
Experimental: A mix of ROR1 positive and negative cells was prepared as follows. Ror1 negative cells were washed 2× in PBS then incubated in PBS containing 1 nM CellTrace™ Oregon Green488® (Life Technologies) at 37° C. for 30 minutes. Cells were then washed 2× with RPMI w/10% fetal calf serum (or FCS), washed 2× with FACS buffer (PBS+0.5% BSA), suspended thoroughly in ice-cold FACS buffer at a final concentration of 4×10^6 cells/ml and kept on ice. ROR1 positive cells were washed 2× in PBS and suspended with ice-cold FACS buffer at 4×10^6 cells/ml. ROR1 positive and negative cells were then mixed to obtain a 1-1 cell suspension and seeded at 50 μl per well on 96 well polypropylene plates. 50 μl of 6-12 point dilutions of anti-ROR1 variants starting from concentrations of ˜100-200 nM antibody was dispensed using BioMekFX (Beckman Coulter) into each well. Cells were then incubated on ice for 1 hr, washed with FACS buffer and incubated for 1 hr on ice with 50 μl FACS buffer containing 2.5 μg/ml Alexa647-conjugated Goat Anti-Human IgG dispensed using BioMekFX (Beckman Coulter). Cells were then washed 2× with FACS buffer and fixed for 10 minutes in 200 μl PBS with 2% PFA prior to fluorescence detection. Samples were acquired using a Beckton Dickinson LSRII FACS. Mean Fluorescence Intensity of ROR1 antibody binding was analyzed using FlowJo® software (Tree Star, Inc.).

| Binder | Kd [1] [nM] | koff [1] [s⁻¹] | kon [1] [M⁻¹ s⁻¹] | Bmax (MFI) [2] [MFI] | Kd [2] [nM] |
| --- | --- | --- | --- | --- | --- |
| SRP1943-C02 (antibody, IgG1, V domains shown, Parent of SRP2193; His/FLAG-tagged IgG1, cell-free; also called Antibody 70) VH: EVQLVESGGGLAQPGGSLRLSCAAPGFNINDYYIHWVRQAPGKGLEWVGAIDPNSGSTDYADSVKGRFAISADTSKNTAYLQMNSLRAEDTAVYYCARSRWFRVLWSYVFDYWGQGTLVTVSS VL: not shown | 97.6 | 0.05 | 539000 | – | – |
| SRP2193-B08 (antibody, IgG1, V domains shown, His/FLAG-tagged IgG1, cell-free; also called Antibody 90) VH: EVQLVESGGGLVQPGGSLRLSCAASGFNIKDYYIHWVRQAPGKGLEWVSAIDPSPGATLDADSVKGRFTISADTSKNTAYLQMNSLRAEDTAVYYCARSRWFRVLWSYALDYWGQGTLVTVSS VL: not shown | – | – | – | 14300 | 1.15 |
| SRP2193-C08 (antibody, IgG1, V domains shown, His/FLAG-tagged IgG1, cell-free; also called Antibody 99) VH: EVQLVESGSGLVQPGGSLRLSCAASGFNINHYYIHWVRQAPGKGLEWVGAIDPYPGSTYNADSVKGRFTISADTSKNTAYLQMNSLRAEDTAVYYCARSRWFRVLWSYVFDYWGQGTLVTVSS VL: not shown | – | – | – | 15000 | 0.72 |
| SRP2193-B10 (antibody, IgG1, V domains shown, His/FLAG-tagged IgG1, cell-free; also called Antibody 88) VH: EVQLVESGGGLVQPGGSLRLSCAASGFNIADYYVHWVRQAPGKGLEWVGAIDPNSGYTVKADSVKGRFTISADTSKNTAYLQMNSLRAEDTAVYYCARSRWLRVLWSFVFDYWGQGTLVTVSS VL: not shown | – | – | – | 14700 | 1.08 |
| SRP2193-C05 (antibody, IgG1, V domains shown, His/FLAG-tagged IgG1, cell-free; also called Antibody 91) VH: EVQLVESGGGLVQPGGSLRLSCAASGFNIKHSYIHWVRQAPGKGLEWVGAIDPHNGSTASADSVKGRFTISADTSKNTAYLQMNSLRAEDTAVHYCARSRWFRVLWSYVIDYWGQGTLVTVSS VL: not shown | – | – | – | 15100 | 1.75 |
| SRP2193-C06 (antibody, IgG1, V domains shown, His/FLAG-tagged IgG1, cell-free) VH: EVQLVESGGGLVQPGGSLRLSCAASGFNIIVHYIHWVRQAPGKGLEWVSAIDPISGSTQWADSVKGRFTISADTSKNTAYLQMNSLRAEDTAVYYCARSRWRRALWIYVFDYWGQGTLVTVSS VL: not shown | – | – | – | 14500 | 4.16 |
| SRP2193-D03 (antibody, IgG1, V domains shown, His/FLAG-tagged IgG1, cell-free; also called Antibody 93) VH: EVQLVESGGGLVQPGGSLRLSCAASGFNINDHYIHWVRQAPGKGLEWVSAIDPNTGSTVNADSVKGRFTISADTSKNTAYLQMNSLRAEDTAVYYCARSRWSRVLWIYVFDYWGQGTLVTVSS VL: not shown | – | – | – | 15700 | 0.93 |

Next, values leading:

| Kd [1] [nM] | koff [1] [s⁻¹] | kon [1] [M⁻¹ s⁻¹] | Bmax (MFI) [2] [MFI] | Kd [2] [nM] | Binder |
| --- | --- | --- | --- | --- | --- |
| – | – | – | 16600 | 0.32 | SRP2193-C10 (antibody, IgG1, V domains shown, His/FLAG-tagged IgG1, cell-free; also called Antibody 123) VH: EVQLVESGGGLVQPGGSLRLSCAASGFNINNAYIHWVRQAPGKGLEWVGAIDPRSGSTISADSMKGRFTISADTSKNTAYLQMNSLRAEDTAVYYCARSRWFRVLWSFGFDYWGQGTLVTVSS VL: not shown |
| – | – | – | 15400 | 0.47 | SRP2193-B05 (antibody, IgG1, V domains shown, His/FLAG-tagged IgG1, cell-free; also called Antibody 109) VH: EVQLVESGGGLVQPGGSLRLSCAASGFNINQYYIHWVRQAPGEGLEWVGAIDPIGGSTHLADSVKGRFTISADTSKNTAYLQMNSLRAEDAAVYYCARSRWYRVLWSYVFDYWGQGTLVTVSS VL: not shown |
| – | – | – | 15900 | 0.39 | SRP2193-C01 (antibody, IgG1, V domains shown, His/FLAG-tagged IgG1, cell-free) VH: EVQLVESGGGLVQPGGSLRLSCAASGLNINDHYIHWVRQAPGKGLEWVGTIDPKSGSTHVADSVKGRFTISADTSKNTAYLQMNSLRAEDTAVYYCARSRWFRVLWSYVFDYWGQGTLVTVSS VL: not shown |
| – | – | – | 15500 | 0.6 | SRP2193-B07 (antibody, IgG1, V domains shown, His/FLAG-tagged IgG1, cell-free) VH: EVQLVESGGGLVQPGGSLRLSCAASGFNINNSYIHWVRQAPGKGLEWVGAIDPNSGSTLSADSVKGRFTISADTSKSTAYLQMNSLRAEDTAVYYCARSRWFRVLWSYIFDYWGQGTLVTVSS VL: not shown |
| – | – | – | 15700 | 0.14 | SRP2193-C03 (antibody, IgG1, V domains shown, His/FLAG-tagged IgG1, cell-free) VH: EVQLVESGGGLVQPGGSLRLSCAASGFNINYSYIHWVRQAPGKGLEWVGAIEPKSGSTASADSVKGRFTISADTSKNTAYLQMNSLRAEDAAVYYCARSRWYRVLWSYVLDYWGQGTLVTVSS VL: not shown |
